Data as given in patent publication US20210316003A1 (Immunomedics, Inc., priority 2020, published 2021).
Where two headings read alike, the source gives them in different places.

System: patients with metastatic urothelial cancer (mUC)
Protocol: Endpoints included safety, investigator-evaluated objective response rate (ORR per RECIST 1.1), clinical benefit rate, duration of response (DOR), progression-free survival (PFS), and overall survival (OS). Sequencing analysis of differentially mutated and expressed genes and pathways was performed in subsets of tumors from responders and non-responders.
Hematopoietic growth factors or blood transfusions were allowed at the investigator's discretion, but not prior to the first dose. Other supportive care (antiemetics, anti-diarrheal medications, or bone-stabilizing agents) were allowed as medically needed.
Additional secondary objectives included assessment of pharmacokinetics and immunogenicity, which were previously reported by Ocean and colleagues (Ocean et al., 2017, Cancer 123:3843-54). Safety evaluations included adverse events (AEs), serious adverse events (SAEs), laboratory safety evaluations, vital signs, physical examinations, and 12-lead electrocardiograms (ECG; performed at baseline, after completion of the infusion on day 1 of every even-numbered treatment cycle, at the end of treatment, and at the end of the study). AEs were graded according to the National Cancer Institute Common Terminology Criteria for Adverse Events, version 4.0.
The data cut-off date for this analysis was Sep. 1, 2018. ORR and CBR were calculated with 95% confidence intervals estimated by the Clopper-Pearson method (Clopper & Pearson, 1934, Biometrika 26:404-13). PFS, OS, and time-to-event endpoints were analyzed by the Kaplan-Meier method, with medians and corresponding 95% confidence intervals determined by the Brookmeyer and Crowley method with log-log transformation. Descriptive statistics were used to characterize AEs. Fischer's exact test was applied to a matrix of pathway-associated gene counts of mutated and wild type phenotypes between responders and non-responders to identify pathways enriched in either of the two response groups. P-values for single sample GSEA (ssGSEA) enrichment score differences between the responder and non-responder patient groups were obtained from the Mann-Whitney statistical test.

[1] = mUC, N = 45, regardless of causality
[2] = mUC, N = 45, listed as Sacituzumab Govitecan

sacituzumab govitecan
Maximum tolerated dose (days 1 and 8 every 21 days, intravenous): 10 mg/kg | Patients with dose reductions (mUC, 18 of 45): 40% | AEs leading to death or treatment-related deaths (mUC, N = 45): no treatment-related deaths were reported | Anemia, grade ≥3 (mUC, N = 45): 13% | Diarrhea, grade ≥3 (mUC, N = 45): 9% | Discontinued for treatment-related AE, % (mUC, N = 45): (11.1) % | Fatigue, grade ≥3 (mUC, N = 45): 9% | Febrile neutropenia, grade ≥3 (mUC, N = 45): 7% | Hypophosphatemia, grade ≥3 (mUC, N = 45): 11% | Neutropenia, grade ≥3 (mUC, N = 45): 38% | Peripheral neuropathy or cardiovascular AEs of grade 3 or higher (mUC, N = 45): no cases | Alopecia, Any Grade, % of patients [1]: (40.0) % | Alopecia, Any Grade, No. of patients [1]: 18 | Alopecia, Grade 3, No. of patients [1]: 0 | Alopecia, Grade 4, No. of patients [1]: 0 | Anemia, Any Grade, % of patients [1]: (33.3) % | Anemia, Any Grade, No. of patients [1]: 15 | Anemia, Grade 3, % of patients [1]: (13.3) % | Anemia, Grade 3, No. of patients [1]: 6 | Anemia, Grade 4, No. of patients [1]: 0 | Any adverse event, Any Grade, % of patients [1]: (100) % | Any adverse event, Any Grade, No. of patients [1]: 45 | Any adverse event, Grade 3, % of patients [1]: (55.6) % | Any adverse event, Grade 3, No. of patients [1]: 25 | Any adverse event, Grade 4, % of patients [1]: 17.8% | Any adverse event, Grade 4, No. of patients [1]: 8 | Back pain, Any Grade, % of patients [1]: (22.2) % | Back pain, Any Grade, No. of patients [1]: 10 | Back pain, Grade 3, No. of patients [1]: 0 | Back pain, Grade 4, No. of patients [1]: 0 | Constipation, Any Grade, % of patients [1]: (44.4) % | Constipation, Any Grade, No. of patients [1]: 20 | Constipation, Grade 3, No. of patients [1]: 0 | Constipation, Grade 4, No. of patients [1]: 0 | Cough, Any Grade, % of patients [1]: (31.1) % | Cough, Any Grade, No. of patients [1]: 14 | Cough, Grade 3, No. of patients [1]: 0 | Cough, Grade 4, No. of patients [1]: 0 | Decreased appetite, Any Grade, % of patients [1]: (37.8) % | Decreased appetite, Any Grade, No. of patients [1]: 17 | Decreased appetite, Grade 3, No. of patients [1]: 0 | Decreased appetite, Grade 4, No. of patients [1]: 0 | Diarrhea, Any Grade, % of patients [1]: (68.9) % | Diarrhea, Any Grade, No. of patients [1]: 31 | Diarrhea, Grade 3, No. of patients [1]: 4 | Diarrhea, Grade 4, No. of patients [1]: 0 | Dizziness, Any Grade, % of patients [1]: (22.2) % | Dizziness, Any Grade, No. of patients [1]: 10 | Dizziness, Grade 3, No. of patients [1]: 0 | Dizziness, Grade 4, No. of patients [1]: 0 | Fatigue, Any Grade, % of patients [1]: (57.8) % | Fatigue, Any Grade, No. of patients [1]: 26 | Fatigue, Grade 3, % of patients [1]: (8.9) % | Fatigue, Grade 3, No. of patients [1]: 4 | Fatigue, Grade 4, No. of patients [1]: 0 | Febrile neutropenia, Any Grade, % of patients [1]: (6.7) % | Febrile neutropenia, Any Grade, No. of patients [1]: 3 | Febrile neutropenia, Grade 3, % of patients [1]: (6.7) % | Febrile neutropenia, Grade 3, No. of patients [1]: 3 | Febrile neutropenia, Grade 4, No. of patients [1]: 0 | Hypophosphatemia, Any Grade, % of patients [1]: (20.0) % | Hypophosphatemia, Any Grade, No. of patients [1]: 9 | Hypophosphatemia, Grade 3, % of patients [1]: (11.1) % | Hypophosphatemia, Grade 3, No. of patients [1]: 5 | Hypophosphatemia, Grade 4, No. of patients [1]: 0 | Nausea, Any Grade, % of patients [1]: (66.7) % | Nausea, Any Grade, No. of patients [1]: 30 | Nausea, Grade 3, % of patients [1]: (2.2) % | Nausea, Grade 3, No. of patients [1]: 1 | Nausea, Grade 4, No. of patients [1]: 0 | Neutropenia (incl. neutrophil count decreased), Any Grade, % of patients [1]: (51.1) % | Neutropenia (incl. neutrophil count decreased), Any Grade, No. of patients [1]: 23 | Neutropenia, Grade 3, % of patients [1]: (22.2) % | Neutropenia, Grade 3, No. of patients [1]: 10 | Neutropenia, Grade 4, % of patients [1]: 15.6% | Neutropenia, Grade 4, No. of patients [1]: 7 | Pyrexia, Any Grade, % of patients [1]: (24.4) % | Pyrexia, Any Grade, No. of patients [1]: 11 | Pyrexia, Grade 3, No. of patients [1]: 0 | Pyrexia, Grade 4, No. of patients [1]: 0 | Rash, Any Grade, % of patients [1]: (22.2) % | Rash, Any Grade, No. of patients [1]: 10 | Rash, Grade 3, No. of patients [1]: 0 | Rash, Grade 4, No. of patients [1]: 0 | Vomiting, Any Grade, % of patients [1]: (31.1) % | Vomiting, Any Grade, No. of patients [1]: 14 | Vomiting, Grade 3, % of patients [1]: (2.2) % | Vomiting, Grade 3, No. of patients [1]: 1 | Vomiting, Grade 4, No. of patients [1]: 0 | AEs leading to death or treatment-related deaths [2]: No AEs leading to death or treatment-related deaths were reported | Peripheral neuropathy or cardiovascular AEs of grade 3 or higher [2]: No cases
